Data as given in patent publication US20030105278A1 (MERK, published 2003).
Like-named read-outs stand apart in the source and are kept apart here. Each block holds one binder with its values, some of them ahead of it. Bridges are numbered along the chain shown (N, C = ends). Where no end group is shown, it is not given here. [ ]: non-standard residue; d: D form. Ava = NCCCCC(=O)O

Tests used:
[1] = biological target: T1, human MCH receptor (membranes from a stable CHO or HEK-293 cell line) (human, UniProt Q99705 1-353); assay: competition vs [125I]-human MCH (Phe13,Tyr19); human MCH receptor cell membranes (Example 3); unit of the concentration '1' not given
T1 construct: whole, on cells; also called cloned human MCH receptor (CHO clone)

[2] = biological target: T2, human MCH receptor expressed from the open reading frame cDNA SEQ. ID. NO. 1 in 293-AEQ17 cells (human, UniProt Q99705 1-353); assay: cell-based or functional assay
[3] = biological target: T2, human MCH receptor expressed from the …; assay: cell-based or functional assay; remark: listed apart in the source
[4] = biological target: T1, human MCH receptor (membranes from a …); assay: competition vs [125I]-human MCH (Phe13,Tyr19); human MCH receptor cell membranes (Example 3)
[5] = biological target: T1, human MCH receptor (membranes from a …); assay: as above; remark: listed apart in the source
[6] = biological target: T2, human MCH receptor expressed from the …; assay: cell-based or functional assay; remark: listed apart in the source
[7] = biological target: T1, human MCH receptor (membranes from a …); assay: SPA competition vs [125I]-human MCH (Phe13,Tyr19); human MCH receptor cell membranes
[8] = biological target: T2, human MCH receptor expressed from the …; assay: cell-based or functional assay; remark: listed apart in the source
[9] = biological target: human MCH receptor (membranes from a stable CHO or HEK-293 cell line) (human) (UniProt Q99705); assay: competition vs [125I]-human MCH (Phe13,Tyr19); human MCH receptor cell membranes (Example 3)
[10] = biological target: T1, human MCH receptor (membranes from a …); assay: as above; remark: listed apart in the source
[11] = biological target: T2, human MCH receptor expressed from the …; assay: cell-based or functional assay; remark: listed apart in the source
[12] = biological target: T1, human MCH receptor (membranes from a …); assay: competition vs [125I]-human MCH (Phe13,Tyr19); human MCH receptor cell membranes (Example 3); remark: listed apart in the source
[13] = biological target: T1, human MCH receptor (membranes from a …); assay: as above; remark: listed apart in the source
[14] = biological target: T2, human MCH receptor expressed from the …; assay: cell-based or functional assay; remark: listed apart in the source
[15] = biological target: T1, human MCH receptor (membranes from a …); assay: competition vs [125I]-human MCH (Phe13,Tyr19); human MCH receptor cell membranes (Example 3); remark: listed apart in the source
[16] = biological target: T2, human MCH receptor expressed from the …; assay: cell-based or functional assay; remark: listed apart in the source
[17] = biological target: T1, human MCH receptor (membranes from a …); assay: competition vs [125I]-human MCH (Phe13,Tyr19); human MCH receptor cell membranes (Example 3); unit of the concentration '1' not given; remark: listed apart in the source

T1 sequence (Q99705 whole entry): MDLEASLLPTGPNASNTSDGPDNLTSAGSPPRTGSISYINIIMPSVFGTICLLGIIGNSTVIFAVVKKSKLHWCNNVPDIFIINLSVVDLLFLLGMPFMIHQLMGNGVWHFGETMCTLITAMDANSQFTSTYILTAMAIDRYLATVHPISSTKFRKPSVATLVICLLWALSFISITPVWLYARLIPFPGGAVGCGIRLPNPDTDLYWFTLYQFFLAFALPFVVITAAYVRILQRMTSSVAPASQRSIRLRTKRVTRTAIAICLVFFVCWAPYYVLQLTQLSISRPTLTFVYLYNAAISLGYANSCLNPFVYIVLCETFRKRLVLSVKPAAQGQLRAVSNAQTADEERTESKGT
T2 sequence (Q99705 whole entry): as above
Sequence of human MCH receptor (membranes from a stable CHO or HEK-293 cell line) (human) (Q99705 whole entry): as above

% @ 1 (in the IC50 column) [1]: 10% | Activation % [2]: 3% | EC50 [2]: > 10000 nM
B1: MCH analog SEQ. ID. NO. 26 (N-Me-Leu^9) (peptide)
peptide: RCMXGRVYRPC
modifications: N-methyl-leucine at position 9; N-terminal acetyl, C-terminal amide, Cys-Cys disulfide as in SEQ. ID. NO. 7
notes: ID; NO; 7 peptide; MCH position numbering

Activation % [3]: 75% | EC50 [3]: 406 nM | IC50 [4]: 6.2 nM
B2: MCH analog SEQ. ID. NO. 72 (Ava^14,15) (peptide)
peptide: Ac-RCMLGRVY[Ava][Ava]C-NH2
modifications: disulfide 2-11
notes: as for B1

Activation % [3]: 105% | IC50 [4]: 0.5 nM
B3: MCH analog SEQ. ID. NO. 77 (Nle^8) (peptide)
peptide: RCXLGRVYRPC
modifications: norleucine at position 8; N-terminal acetyl, C-terminal amide, Cys-Cys disulfide as in SEQ. ID. NO. 7
notes: as for B1

IC50 [5]: 0.46 nM | Activation % [6]: 86% | EC50 [6]: 45 nM
B4: MCH analog SEQ. ID. NO. 15 (D-Arg^6) (peptide)
peptide: XCMLGRVYRPC
modifications: D-Arg^6; N-terminal acetyl, C-terminal amide, Cys-Cys disulfide as in SEQ. ID. NO. 7
notes: as for B1

IC50 [7]: 0.3 nM | % Activation at 10 µM [8]: 99%
B5: truncated MCH analog SEQ. ID. NO. 10: Asp-Phe-Asp-Met-Ieu-Arg-Cys-Met-Ieu-Gly-Arg-Val-Tyr-Arg-Pro-Cys-amide (peptide)
peptide: DFDMLRCMLGRVYRPC-NH2
modifications: disulfide 7-16; N-terminus assumed
SMILES: CSCC[C@@H]1NC(=O)[C@@H](NC(=O)[C@H](CCCNC(=N)N)NC(=O)[C@H](CC(C)C)NC(=O)[C@H](CCSC)NC(=O)[C@H](CC(=O)O)NC(=O)[C@H](Cc2ccccc2)NC(=O)[C@@H](N)CC(=O)O)CSSC[C@@H](C(N)=O)NC(=O)[C@@H]2CCCN2C(=O)[C@H](CCCNC(=N)N)NC(=O)[C@H](Cc2ccc(O)cc2)NC(=O)[C@H](C(C)C)NC(=O)[C@H](CCCNC(=N)N)NC(=O)CNC(=O)[C@H](CC(C)C)NC1=O

Activation % [3]: 3% | EC50 [3]: > 10000 nM | IC50 [9]: 50 nM
B6: MCH analog SEQ. ID. NO. 76 (Ava^9,10,Ava^14,15) (peptide)
peptide: Ac-RCM[Ava][Ava]RVY[Ava][Ava]C-NH2
modifications: disulfide 2-11; not fully specified

IC50 [10]: 2.3 nM | Activation % [2]: 95%
B7: MCH analog SEQ. ID. NO. 27 (Sar^10) (peptide)
peptide: RCMLXRVYRPC
modifications: sarcosine at position 10; N-terminal acetyl, C-terminal amide, Cys-Cys disulfide as in SEQ. ID. NO. 7
notes: as for B1

Activation % [3]: 82% | IC50 [4]: 3.7 nM
B8: MCH analog SEQ. ID. NO. 70 (Ava^9,10) (peptide)
peptide: Ac-RCM[Ava][Ava]RVYRPC-NH2
modifications: disulfide 2-11; not fully specified
notes: as for B1

IC50 [7]: 0.16 nM | % Activation at 10 µM [8]: 123% | EC50 [8]: 36 nM
B9: truncated MCH analog SEQ. ID. NO. 8: Ac-Arg-Cys-Met-Leu-Gly-Arg-Val-Phe-Arg-Pro-Cys-Tyr-amide (peptide)
peptide: Ac-RCMLGRVFRPCY-NH2
modifications: disulfide 2-11
SMILES: CSCC[C@@H]1NC(=O)[C@@H](NC(=O)[C@H](CCCNC(=N)N)NC(C)=O)CSSC[C@@H](C(=O)N[C@@H](Cc2ccc(O)cc2)C(N)=O)NC(=O)[C@@H]2CCCN2C(=O)[C@H](CCCNC(=N)N)NC(=O)[C@H](Cc2ccccc2)NC(=O)[C@H](C(C)C)NC(=O)[C@H](CCCNC(=N)N)NC(=O)CNC(=O)[C@H](CC(C)C)NC1=O

IC50 [7]: 0.12 nM | Activation % [11]: 99% | EC50 [11]: 20 nM | IC50 [12]: 1.4 nM | IC50 [5]: 0.5 nM | IC50 [10]: 1.4 nM | % Activation at 10 µM [8]: 123% | EC50 [8]: 18 nM | IC50 [13]: 0.5 nM | Activation % [6]: 99% | EC50 [6]: 20 nM | Activation % [3]: 99% | EC50 [3]: 20 nM | Activation % [14]: 99% | EC50 [14]: 20 nM | Activation % [2]: 99% | EC50 [2]: 20 nM | IC50 [15]: 1.4 nM | Activation % [16]: 99% | EC50 [16]: 20 nM | IC50 [4]: 1.4 nM
B10: truncated MCH analog SEQ. ID. NO. 7: Ac-Arg-Cys-Met-Leu-Gly-Arg-Val-Tyr-Arg-Pro-Cys-amide (peptide)
peptide: Ac-RCMLGRVYRPC-NH2
modifications: disulfide 2-11 (inferred)
notes: Corresponds to MCH positions 6-16; also called ID; NO; 7 MCH analog

IC50 [15]: 13.1 nM | Activation % [16]: 66% | EC50 [16]: 3400 nM
B11: MCH analog SEQ. ID. NO. 64 (position 13: His) (peptide)
peptide: Ac-RCMLGRVHRPC-NH2
modifications: disulfide 2-11
SMILES: CSCC[C@@H]1NC(=O)[C@@H](NC(=O)[C@H](CCCNC(=N)N)NC(C)=O)CSSC[C@@H](C(N)=O)NC(=O)[C@@H]2CCCN2C(=O)[C@H](CCCNC(=N)N)NC(=O)[C@H](Cc2c[nH]cn2)NC(=O)[C@H](C(C)C)NC(=O)[C@H](CCCNC(=N)N)NC(=O)CNC(=O)[C@H](CC(C)C)NC1=O
notes: as for B1

IC50 [15]: 3.8 nM | Activation % [16]: 83% | EC50 [16]: 890 nM
B12: MCH analog SEQ. ID. NO. 63 (position 13: Trp) (peptide)
peptide: Ac-RCMLGRVWRPC-NH2
modifications: disulfide 2-11
SMILES: CSCC[C@@H]1NC(=O)[C@@H](NC(=O)[C@H](CCCNC(=N)N)NC(C)=O)CSSC[C@@H](C(N)=O)NC(=O)[C@@H]2CCCN2C(=O)[C@H](CCCNC(=N)N)NC(=O)[C@H](Cc2c[nH]c3ccccc23)NC(=O)[C@H](C(C)C)NC(=O)[C@H](CCCNC(=N)N)NC(=O)CNC(=O)[C@H](CC(C)C)NC1=O
notes: as for B1

IC50 [15]: 1 nM | Activation % [16]: 96% | EC50 [16]: 46 nM
B13: MCH analog SEQ. ID. NO. 62 (position 13: Phe) (peptide)
peptide: Ac-RCMLGRVFRPC-NH2
modifications: disulfide 2-11
SMILES: CSCC[C@@H]1NC(=O)[C@@H](NC(=O)[C@H](CCCNC(=N)N)NC(C)=O)CSSC[C@@H](C(N)=O)NC(=O)[C@@H]2CCCN2C(=O)[C@H](CCCNC(=N)N)NC(=O)[C@H](Cc2ccccc2)NC(=O)[C@H](C(C)C)NC(=O)[C@H](CCCNC(=N)N)NC(=O)CNC(=O)[C@H](CC(C)C)NC1=O
notes: as for B1

IC50 [7]: 1.6 nM | % Activation at 10 µM [8]: 74% | EC50 [8]: 300 nM
B14: truncated MCH analog SEQ. ID. NO. 9: Ac-Cys-Met-Leu-Gly-Arg-Val-Tyr-Arg-Pro-Cys-amide (peptide)
peptide: Ac-CMLGRVYRPC-NH2
modifications: disulfide 1-10
SMILES: CSCC[C@@H]1NC(=O)[C@@H](NC(C)=O)CSSC[C@@H](C(N)=O)NC(=O)[C@@H]2CCCN2C(=O)[C@H](CCCNC(=N)N)NC(=O)[C@H](Cc2ccc(O)cc2)NC(=O)[C@H](C(C)C)NC(=O)[C@H](CCCNC(=N)N)NC(=O)CNC(=O)[C@H](CC(C)C)NC1=O

IC50 [10]: 0.16 nM | Activation % [2]: 110% | EC50 [2]: 20 nM
B15: MCH analog SEQ. ID. NO. 25 (N-Me-Nle^8) (peptide)
peptide: RCXLGRVYRPC
modifications: N-methyl-norleucine at position 8; N-terminal acetyl, C-terminal amide, Cys-Cys disulfide as in SEQ. ID. NO. 7
notes: as for B1

Activation % [3]: 72% | IC50 [4]: 3.7 nM
B16: MCH analog SEQ. ID. NO. 71 (D-Arg^6,Ava^9,10) (peptide)
peptide: Ac-[dR]CM[Ava][Ava]RVYRPC-NH2
modifications: disulfide 2-11; not fully specified
notes: as for B1

Activation % [3]: 3% | IC50 [4]: 700 nM
B17: MCH analog SEQ. ID. NO. 74 (D-Pro^10,Ava^14,15) (peptide)
peptide: RCMLXRVYXXC
modifications: not fully specified; D-Pro^10; Ava (5-aminopentanoic acid) in place of positions 14,15; N-terminal acetyl, C-terminal amide, Cys-Cys disulfide as in SEQ. ID. NO. 7
notes: as for B1

% @ 1 (in the IC50 column) [17]: 40% | EC50 [14]: > 10000 nM
B18: MCH analog SEQ. ID. NO. 58 (position 10: D-Glu) (peptide)
peptide: RCMLXRVYRPC
modifications: D-Glu at position 10; N-terminal acetyl, C-terminal amide, Cys-Cys disulfide as in SEQ. ID. NO. 7
notes: as for B1
